Measured values published in patent US20180282403A1, “AGENTS FOR REDUCING THE ACTIVITY OF GDF15” (GENAGON THERAPEUTICS AB, priority 2015, published 2018).

Legend:
Type in all cases: cell-based
QRFPR [1] = target: T1, QRFPR (Homo sapiens, UniProt Q96P65); assay: In situ PLA detection of RAB4-QRFPR double positive endosomes; details: GDF15 stimulation alone; FIG. 7
T1 construct: endogenous in cells
T1 sequence (Q96P65 1-431): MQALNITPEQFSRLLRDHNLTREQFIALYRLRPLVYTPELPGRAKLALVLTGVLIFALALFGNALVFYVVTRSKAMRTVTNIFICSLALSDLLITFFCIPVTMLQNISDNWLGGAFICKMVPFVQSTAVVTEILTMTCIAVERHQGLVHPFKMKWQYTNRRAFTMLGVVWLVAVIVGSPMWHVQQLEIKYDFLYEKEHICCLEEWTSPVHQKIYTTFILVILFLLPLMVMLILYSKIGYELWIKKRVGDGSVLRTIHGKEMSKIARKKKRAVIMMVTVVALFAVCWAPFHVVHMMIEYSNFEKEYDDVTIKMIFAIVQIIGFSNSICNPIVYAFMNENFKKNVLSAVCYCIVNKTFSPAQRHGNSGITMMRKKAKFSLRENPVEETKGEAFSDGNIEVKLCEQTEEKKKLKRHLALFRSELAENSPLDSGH
Experimental: An assay was developed to detect the proximity of RAB4-QRFPR using antibodies against RAB4 and QRFPR.
In short, the cells were serum starved overnight then pre-incubated with blocking antibodies towards extracellular parts of QRFPR for 2 hrs prior to GDF15 treatment (1 μg/ml) for 30 minutes. The levels of formed RAB4-QRFPR complexes were measured by visualization of formed RCA products using the Duolink is PLA system (see FIG. 11).

QRFPR [2] = target: T1, QRFPR; assay: In situ PLA detection of EEA1-QRFPR proximity; details: GDF15 5 min; FIG. 3C-D
From the text: […] (EEA1) is a marker for rapid endosome formation, and an assay was developed to detect the proximity of EEA1 and QRFPR. In the absence of GDF15, no signal was obtained (FIG. 3C).

SMAD2 = assay: Detection of phosphorylated SMAD2 in NK-92 cells; details: GDF15 40 min
Experimental: (§1) GDF15 has been reported in the literature to mediate downstream signalling resembling both the canonical (SMAD) pathway mediated by ALK5(TGFBRI) kinase domain, and non-canonical TGFβ receptor signalling, such as phosphorylation of GSK3b. In order to investigate if CLPTM1 was involved in this we developed a set of in situ PLA assays to determine the dynamics between CLPTM1 and the TGFβ receptors and components downstream of the TGFβ receptors. NK-92 cells were treated with GDF15 for 40 min to detect phosphorylated SMAD proteins such as SMAD2 in the nucleus. […] From previous experiments with TGFB1 stimulation we know that the assay (pSMAD2) was functional.

CLPTM1 [3] = target: T2, CLPTM1 (Homo sapiens, UniProt O96005); assay: In situ PLA detection of the CLPTM1-TGFBRI complex in NK-92 cells; details: GDF15 stimulation, FIG. 14
T2 construct: endogenous in cells; host or cells: NK-92 cells
T2 sequence (O96005 1-669): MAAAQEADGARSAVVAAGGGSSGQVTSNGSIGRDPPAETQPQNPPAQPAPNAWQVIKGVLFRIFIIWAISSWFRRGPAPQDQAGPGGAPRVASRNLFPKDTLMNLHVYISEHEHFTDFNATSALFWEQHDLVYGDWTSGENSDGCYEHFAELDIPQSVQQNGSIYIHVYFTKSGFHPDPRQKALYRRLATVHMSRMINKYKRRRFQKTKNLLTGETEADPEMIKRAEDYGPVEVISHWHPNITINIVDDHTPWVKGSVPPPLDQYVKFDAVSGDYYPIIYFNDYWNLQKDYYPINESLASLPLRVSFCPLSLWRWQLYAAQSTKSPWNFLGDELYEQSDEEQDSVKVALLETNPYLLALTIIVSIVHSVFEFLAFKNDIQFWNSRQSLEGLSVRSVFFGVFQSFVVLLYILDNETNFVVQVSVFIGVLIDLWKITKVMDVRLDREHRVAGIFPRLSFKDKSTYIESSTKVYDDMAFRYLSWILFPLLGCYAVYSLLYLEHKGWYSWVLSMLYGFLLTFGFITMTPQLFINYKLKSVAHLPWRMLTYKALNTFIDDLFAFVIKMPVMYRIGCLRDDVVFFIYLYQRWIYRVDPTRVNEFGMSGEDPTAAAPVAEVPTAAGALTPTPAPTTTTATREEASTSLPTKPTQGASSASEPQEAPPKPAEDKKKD
Experimental: as §1

CLPTM1 [4] = target: T2, CLPTM1; assay: In situ PLA detection of the CLPTM1-TGFBRII complex in NK cells; details: GDF15 treatment; FIG. 15
From the text: It was not known whether TGFBRI localised with CLPTM1 independently from the corresponding Type II receptor TGFBRII, or whether the TGFBRI-TGFBRII heterocomplex associated with CLPTM1 upon GDF15 stimulation. In order to determine this, a second in situ PLA assay was developed, using antibodies towards TGFBRII in concert with CLPTM1 antibodies from another species. […] (FIG. 15)

EEA1-QRFPR proximity (RCA products) (QRFPR [2]): increase the number of RCA products
CLPTM1 proximity to TGFBRII (CLPTM1 [4]): induced CLPTM1 proximity to TGFBRII
Substance: GDF15: Growth and differentiation factor 15, from mammalian source or recombinant from E. coli (Abcam, Biovision)
RAB4-QRFPR double positive endosomes (QRFPR [1]): formation of RAB4-QRFPR double positive endosomes was detected
c-terminal phosphorylated SMAD 2 (SMAD2): failed to detect c-terminal phosphorylated SMAD 2
proximity between CLPTM1 and TGFBRI(ALK5) (CLPTM1 [3]): induced proximity between CLPTM1 and TGFBRI(ALK5)
